Laboratory results taken from US20240052042A1 (Novartis, published 2024).

B1: YY07 (IgG format) (antibody, V domains shown)
VH: EVQLVQSGAEVKKPGESLKISCKGSGYSFTSYWISWVRQMPGKGLEWMGIIYPGTSYTRYSPSFQGQVTISADKSISTAYLQWSSLKASDTAMYYCARGSLPGLLGFDHWGQGTLVTVSS
VL: QSVLTQPPSVSGAPGQRVTISCTGSSSNIGAGYDVHWYQQLPGTAPKLLIYGNSNRPNGVPDRFSGSKSGTSASLAITGLQAEDEADYYCQSYDSPTSSSVFGGGTKLTVLG
notes: also called YY07_LALA
B2: YY06 (IgG format) (antibody, V domains shown)
VH: EVQLLESGGGLVQPGGSLRLSCAASGFTFSSYAISWVRQAPGKGLEWVSAISGSGGSTYYAESVKGRFTISRDNSKNTLYLQMNSLRAEDTAVYYCARPYLGDRRSYGFDHWGQGTLVTVSS
VL: QSALTQPASVSGSPGQSITISCTGTSSDVGSYNLVSWYQQHPGKAPKLMIYEGSKRPSGVSNRFSGSKSGNTASLTISGLQAEDEADYYCSSYGFHIVVVVFGGGTKLTVLG
notes: also called YY06_LALA

Legend:
[1] = biological target: T1, human Natriuretic Peptide Receptor 1 (hNPR1) (human, UniProt P16066 33-473, limits assumed); experiment: ELISA, 1 µM IgG; design: unit not given here
T1 construct: pannings used NPR1-hFc; also called NPR1-hFc
T1 sequence: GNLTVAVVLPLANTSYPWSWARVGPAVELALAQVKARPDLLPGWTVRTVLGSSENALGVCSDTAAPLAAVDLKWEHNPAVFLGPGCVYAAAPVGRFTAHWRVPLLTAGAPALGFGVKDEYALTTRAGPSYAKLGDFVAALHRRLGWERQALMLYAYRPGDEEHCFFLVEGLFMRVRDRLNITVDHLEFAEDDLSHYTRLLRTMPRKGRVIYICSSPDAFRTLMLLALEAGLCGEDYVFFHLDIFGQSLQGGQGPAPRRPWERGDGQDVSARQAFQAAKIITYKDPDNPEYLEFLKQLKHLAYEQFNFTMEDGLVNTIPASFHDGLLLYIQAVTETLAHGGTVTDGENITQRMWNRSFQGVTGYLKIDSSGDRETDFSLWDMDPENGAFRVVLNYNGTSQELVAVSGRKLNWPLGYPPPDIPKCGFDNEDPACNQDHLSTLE

[2] = biological target: T2, human NPR1 on CHO-K1 cells in the presence of ANP (human, UniProt P01160 124-151); experiment: flow cytometry, hNPR1 CHO-K1 cells, IgG
T2 construct: also called hNPR1 CHO K1 + 100 nM ANP
T2 sequence: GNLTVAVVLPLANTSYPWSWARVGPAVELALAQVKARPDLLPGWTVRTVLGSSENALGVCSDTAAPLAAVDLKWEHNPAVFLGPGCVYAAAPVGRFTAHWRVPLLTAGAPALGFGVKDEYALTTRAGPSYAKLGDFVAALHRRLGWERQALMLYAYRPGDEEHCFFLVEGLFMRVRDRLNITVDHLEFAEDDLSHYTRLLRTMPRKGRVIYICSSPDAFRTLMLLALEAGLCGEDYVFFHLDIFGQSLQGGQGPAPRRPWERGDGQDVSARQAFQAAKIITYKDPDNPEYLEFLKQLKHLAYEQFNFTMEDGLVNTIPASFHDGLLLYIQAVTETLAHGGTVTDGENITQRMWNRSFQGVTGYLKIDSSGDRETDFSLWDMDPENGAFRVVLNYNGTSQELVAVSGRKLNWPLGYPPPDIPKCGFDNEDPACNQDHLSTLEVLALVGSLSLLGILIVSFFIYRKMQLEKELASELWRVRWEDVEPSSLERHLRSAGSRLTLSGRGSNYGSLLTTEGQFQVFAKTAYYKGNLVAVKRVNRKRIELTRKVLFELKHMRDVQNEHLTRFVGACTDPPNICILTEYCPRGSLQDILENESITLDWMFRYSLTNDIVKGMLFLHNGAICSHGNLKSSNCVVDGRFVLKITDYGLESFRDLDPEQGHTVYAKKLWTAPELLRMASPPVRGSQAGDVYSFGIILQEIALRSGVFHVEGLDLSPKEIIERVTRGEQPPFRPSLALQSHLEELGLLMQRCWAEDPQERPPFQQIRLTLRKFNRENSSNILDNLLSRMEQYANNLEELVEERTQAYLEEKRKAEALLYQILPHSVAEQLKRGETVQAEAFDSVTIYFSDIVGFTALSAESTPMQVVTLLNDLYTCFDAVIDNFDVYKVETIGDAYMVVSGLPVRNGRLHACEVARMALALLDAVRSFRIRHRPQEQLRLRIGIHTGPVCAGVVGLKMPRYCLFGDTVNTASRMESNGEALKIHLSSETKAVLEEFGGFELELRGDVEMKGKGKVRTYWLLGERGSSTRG
T2 sequence (peptide): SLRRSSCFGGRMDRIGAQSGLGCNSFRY

[3] = biological target: T3, human NPR1 on CHO-K1 cells (human, UniProt P16066 33-1061); experiment: flow cytometry, hNPR1 CHO-K1 cells, IgG
T3 construct: also called hNPR1 CHO K1; human NPR1 expressing CHO-K1 cells
T3 sequence: T2 sequence

[4] = biological target: T1, human Natriuretic Peptide Receptor 1 …; experiment: ELISA, IgG titrated on coated antigen, fluorescence [Cont.]
[5] = biological target: W74R hNPR1 mutant in the presence of ANP (human) (UniProt P01160); experiment: ELISA, IgG titrated on coated antigen with ANP (250 fold molar excess), fluorescence [Cont.]
[6] = biological target: T1, human Natriuretic Peptide Receptor 1 …; experiment: FRET ANP competition assay: IgG titrated on NPR1, Eu-labeled donor, Cy5-labeled ANP as the competed ligand [Cont.]
Method: The same 31 IgGs were tested for ANP competition using a Fluorescence Resonance Energy Transfer (FRET)-based assay in which the NPR1-specific antibodies competed with ANP for binding to NPR1. In this FRET based assay (see FIG. 3), Eu-labeled Streptavidin (for measurement of IgGs) or Eu-labeled anti-hFc antibody (for measurement of FabCys) was used as an energy donor, while Cy5-labeled ANP was used as an acceptor (for all measurements). The resulting fluorescent signal was decreased by ANP-competitive antibodies. The assay was performed as follows: antibodies were mixed with NPR1 and incubated for 5 minutes at room temperature. After addition of the Eu-labeled donor and incubation for 30 minutes at room temperature, the Cy5-ANP solution was added. After a further 60-minute incubation, readout was performed using a TECAN Infinite M1000 Pro using an excitation wavelength of 317 nm and an emission wavelength of 665 nm. Percentage of ANP competition was calculated according to the following formulae: […]
All 92 FabCys and 24 IgGs were tested for binding to relevant antigens via ELISA and relevant cell lines by flow cytometry. […] Eight functional candidates were identified and analyzed for specificity in the Protein Panel Profiling assay (3P assay) in IgG format. For comparison, one of the functional candidates from the initial campaign (WW03) was analyzed. […]

Binder	ELISA binding at 1 µM IgG [1]	flow cytometry S/BG at 1 µM IgG [2]	flow cytometry S/BG at 1 µM IgG [3]	EC50 (read off the curve) [4]	EC50 (read off the curve) [5]	IC50 (read off the curve) [6]
B1	68	44 S/BG	8 S/BG	–	–	–
B2	91	18 S/BG	26 S/BG	~7 nM	20 nM	~4 nM
